Measurements from US20250082608A1, “TREATMENT AND PREVENTION OF GLOMERULAR DISEASE” (Singapore Health Services PTE LTD., priority 2021, published 2025).
“Also recorded” adds a separate entry of the source.

Key:
[1] = tested on: rheumatoid synovial cells; conditions: upon treatment; cited from earlier work
Col4a3−/− mice [2] = conditions: cited from earlier work
Col4a3−/− mice [3] = test: Lifespan study in Col4a3−/− mice, anti-IL11 and ramipril alone or in combination, Example 3; assay type: in vivo, mouse; conditions: X203 20 mg/kg twice a week, ramipril 10 mg/kg 6 days/week, from 6 weeks of age; for mean percentage lifespan extension: over lifespan of untreated Col4a3−/− mice
Protocol: Col4a3^−/− (Col4a3^tm1Dec) mice were housed as described in Example 2.2. For lifespan studies, the mice were intraperitoneally administered either anti-IL11 (X203; twice a week, 20 mg/kg) or IgG isotype control (11 E10; twice a week, 20 mg/kg) alone or in combination with ramipril (10 mg/kg; 6 days/week) starting from 6 weeks of age, until death ensued.

IL-11Rα = biological target: T1, IL-11Rα (Homo sapiens, UniProt Q14626); conditions: low affinity; cited from earlier work
T1 sequence (Q14626 23-422): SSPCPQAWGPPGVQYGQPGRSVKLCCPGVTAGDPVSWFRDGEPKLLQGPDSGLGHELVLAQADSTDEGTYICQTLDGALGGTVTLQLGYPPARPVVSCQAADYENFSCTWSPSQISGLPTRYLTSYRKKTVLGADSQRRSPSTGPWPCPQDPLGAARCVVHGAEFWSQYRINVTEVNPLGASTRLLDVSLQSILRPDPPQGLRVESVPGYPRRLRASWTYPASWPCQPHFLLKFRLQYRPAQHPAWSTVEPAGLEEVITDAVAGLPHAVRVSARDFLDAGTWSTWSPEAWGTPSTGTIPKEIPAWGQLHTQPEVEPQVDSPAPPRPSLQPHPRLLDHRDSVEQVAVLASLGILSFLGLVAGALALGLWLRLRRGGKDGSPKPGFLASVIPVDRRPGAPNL

Col4a3−/− mice [4] = test: Treatment study in Col4a3−/− mice: renal mRNA expression by qPCR; assay type: in vivo, mouse
Protocol: (§1) Col4a3^−/− (Col4a3^tm1Dec) mice were purchased from The Jackson Laboratory (https://www.jax.org/strain/002908). Mice were housed in temperatures of 21-24° C. with 40-70% humidity on a 12 h light/12 h dark cycle and provided with food and water ad libitum. For treatment study, Col4a3^−/− were administered 20 mg/kg of anti-IL11 (X203) or IgG isotype control (11 E10) by intraperitoneal (IP) injection starting from 6 weeks of age twice a week for 2.5 weeks; wild-type littermates were used as controls. Mice were sacrificed for blood and kidney collection when they were 8.5-week-old. For lifespan study, IgG/X203 was administered to 6-week-old Col4a3^−/− (2×/week) until death ensued.
Total RNA was extracted from snap-frozen kidney tissues using Trizol (Invitrogen) followed by RNeasy column (Qiagen) purification. cDNAs were synthesized with iScript™ cDNA synthesis kit (Bio-Rad) according to manufacturer's instructions. Gene expression analysis was performed on duplicate samples with either TaqMan (Applied Biosystems) or fast SYBR green (Qiagen) technology using StepOnePlus™ (Applied Biosystem) over 40 cycles. Expression data were normalized to GAPDH mRNA expression and fold change was calculated using […]. The sequences of specific TaqMan probes and SYBR green primers are available upon request.

Col4a3−/− mice [5] = test: Treatment study in Col4a3−/− mice: renal fibrosis (total renal collagen content, Masson's Trichrome staining); assay type: in vivo, mouse; conditions: 20 mg/kg 2x/week for 2.5 weeks from 6 weeks of age; vs IgG
Protocol: as §1
Kidney tissues were fixed for 48 hours at RT in 10% neutral-buffered formalin (NBF), dehydrated, embedded in paraffin, and sectioned at 7 μm. Transverse kidney sections were then stained with Masson's Trichrome according to standard protocol. Images of the sections were captured by light microscopy and blue-stained fibrotic areas were semi-quantitatively determined with Image-J software (color deconvolution-Masson Trichrome) from the whole kidney area (100×field, n=4 kidneys/group). Treatment and genotypes were not disclosed to investigators performing the histology and generating semi-quantitative readouts.

Col4a3−/− mice [6] = test: Treatment study in Col4a3−/− mice: Western blot of kidney protein extracts; assay type: in vivo, mouse; conditions: vs IgG
Protocol: as §1
Western blot was carried out on total protein extracts from mouse kidney tissues. Kidneys were lysed in radioimmunoprecipitation assay (RIPA) buffer containing protease and phosphatase inhibitors (Thermo Scientifics), followed by centrifugation to clear the lysate. Protein concentrations were determined by Bradford assay (Bio-Rad). Protein lysates were separated by SDS-PAGE, transferred to PVDF membrane, and subjected to immunoblot analysis for various antibodies as outlined in the main text, figures, or and/or figure legends. Proteins were visualized using the ECL detection system (Pierce) with the appropriate secondary antibodies: anti-rabbit HRP or antimouse HRP.

Col4a3−/− mice [7] = test: Lifespan study in Col4a3−/− mice, Example 2; assay type: in vivo, mouse
Protocol: as §1
Statistical analyses were performed using GraphPad Prism software (version 8). Statistical significance between control and experimental groups were analysed by twosided Student's t tests or by one-way ANOVA as indicated in the figure legends. P values were corrected for multiple testing according to Tukey when several conditions were compared to each other within one experiment. Comparison analysis for two parameters from two different groups were performed by two-way ANOVA. Survival curves were analyzed by Gehan-Breslow-Wilcoxon test. The criterion for statistical significance was P<0.05.

Col4a3−/− mice [8] = test: Treatment study in Col4a3−/− mice: body weight and kidney weight; assay type: in vivo, mouse
Protocol: as §1
Over recent years, antibodies that inhibit IL11 signaling in mouse and human cells have been developed^15,17. One of these neutralizing IL11 antibodies (X203) or an IgG control were administered to 6-week-old Col4a3^−/− mice, the time point when initiation of ramipril has proven ineffective^6, and examined renal pathologies at 8.5 weeks of age, as compared to age-matched wild-type controls (FIG. 3A).

129-Col4a3^tm1Dec/J mice = test: Survival of mice homozygous for Col4a3^tm1Dec (mouse model of Alport syndrome), Example 1; assay type: in vivo; conditions: 20 mg/kg i.p. biweekly from 6 weeks of age until mortality
Text: 129-Col4a3^tm1Dec/J mice were obtained from The Jackson Laboratory (Stock No:002908; COL4A3 KO). The mice comprise the Col4a3^tm1Dec mutation described e.g. in Cosgrove et al., Genes Dev. (1996) 10:2981-2992, which is hereby incorporated by reference in its entirety. 129-Col4a3^tm1Dec/J mice comprise a targeted mutation to Col4a3, resulting in progressive glomerulonephritis with microhematuria and proteinuria, and mice homozygous for the mutation typically die at about 8.5 weeks.
From 6 weeks of age, mice homozygous for the Col4a3^tm1Dec mutation were administered biweekly by intraperitoneal injection of 20 mg/kg of Enx203, or an isotype-matched control antibody, until mortality.

Col4a3−/− mice [9] = test: Treatment study in Col4a3−/− mice: renal function (BUN, serum creatinine, urinary albumin:creatinine) by colorimetric assays/ELISA; assay type: in vivo, mouse; conditions: study end, 8.5 weeks of age; X203 from week 6
Protocol: as §1
The levels of blood urea nitrogen (BUN) and creatinine in mouse serum were measured using Urea Assay Kit (ab83362, Abcam) and Creatinine Assay Kit (ab65340, Abcam), respectively. Urine albumin and creatinine levels were measured using Mouse Albumin ELISA kit (ab108792, Abcam) and Creatinine Assay Kit (ab204537, Abcam), respectively. All ELISA and colorimetric assays were performed according to the manufacturer's protocol.

Col4a3−/− mice [10] = test: Treatment study in Col4a3−/− mice: Wilms' Tumor 1 immunohistochemistry (podocytes); assay type: in vivo, mouse; conditions: blinded quantification; vs IgG, P=0.0002
Protocol: as §1
Kidneys were fixed in 10% neutral-buffered formalin (NBF), paraffinized, cut into 7 μm sections, incubated with primary antibodies overnight and visualized using an ImmPRESS HRP anti-rabbit IgG polymer detection kit (MP-7401, Vector Laboratories) with ImmPACT DAB Peroxidase Substrate (SK-4105, Vector Laboratories). Quantification of WT^+ve cells were performed in a blinded fashion from 4 images (200×field)/kidney (n=3-4 kidneys/group).

Molecule: interferon-gamma (IFNγ): interferon-gamma
- expression of IL-11 [1]: reduction in the expression of IL-11

Molecule: CCOC(=O)[C@H](CCc1ccccc1)N[C@@H](C)C(=O)N1[C@H](C(=O)O)C[C@@H]2CCC[C@@H]21 [ramipril]
- beneficial effect of delayed treatment (Col4a3−/− mice [2]; treatment delayed until after proteinuria was established (6-week-old mice)): no beneficial effect; also recorded: ineffective
- kidney dysfunction and lifespan (Col4a3−/− mice [2]; treatment of 4-week-old mice, prior to onset of proteinuria and tubulointerstitial fibrosis): attenuated kidney dysfunction and prolonged lifespan
- improvement of median survival over untreated mice (Col4a3−/− mice [3]): 14 days
- mean percentage lifespan extension (Col4a3−/− mice [3]): 25.40%

Molecule: COc1ccc2c(c1)c(CC(=O)O)c(C)n2C(=O)c1ccc(Cl)cc1 [indomethacin, reference compound]
- expression of IL-11 [1]: reduction in the expression of IL-11

B1: IL-11: pleiotropic cytokine, member of the IL-6 family; human sequence SEQ ID NO:1 (protein)
chain: PGPPAGSPRVSSDPRADLDSAVLLTRSLLADTRQLAAQMRDKFPADGDHSLDSLPTLAMSAGTLGSLQLPGVLTRLRVDLMSYLRHVQWLRRAGGPSLKTLEPELGALQARLERLLRRLQLLMSRLALPQAAPDQPVIPLGPPASAWGSIRAAHAILGGLHLTLDWAVRGLLLLKTRL
- Kd (IL-11Rα): ~22 nM

B2: Enx203: mouse anti-mouse IL-11 IgG, neutralizing; VH SEQ ID NO:22, VL SEQ ID NO:23 (antibody, V domains shown)
VH: EVQLQQSGPELVKPGASVKIPCKASGYTFTDYNMDWVKQSHGKSLEWIGDINPHNGGPIYNQKFTGKATLTVDKSSSTAYMELRSLTSEDTAVYYCARGELGHWYFDVWGTGTTVTVSS
VL: DIVLTQSPASLAVSLGQRATISCRASKSVSTSGYSYIHWYQQKPGQPPKLLIYLASNLDSGVPARFSGSGSGTDFTLNIHPVEEEDAATYYCQHSRDLPPTFGGGTKLEIK
- renal levels of extracellular matrix genes (Col1a1, Col1a2, Col3a1, Fn), Acta2 and pro-fibrotic factors (Il11, Tgfb1) (Col4a3−/− mice [4]; mRNA, 20 mg/kg 2x/week for 2.5 weeks from 6 weeks of age, vs IgG): all reduced
- indicators of tubule damage (Kim1 and Ngal) (Col4a3−/− mice [4]; renal mRNA): restored by X203 administration towards the levels seen in wildtype mice
- Tnfα expression (Col4a3−/− mice [4]; renal mRNA, vs IgG): reduced Tnfα expression
- proinflammatory interleukins (Il6, Il1b) and CC chemokines (Ccl2, Ccl5) (Col4a3−/− mice [4]; renal mRNA, vs IgG): equally diminished
- improvement of median survival over untreated mice (Col4a3−/− mice [3]): 28 days
- mean percentage lifespan extension (Col4a3−/− mice [3]): 41.93%
- kidney fibrosis by biochemical and histological assessments (Col4a3−/− mice [5]): reduced severity of renal fibrosis; also recorded: significantly less kidney fibrosis
- ERK and STAT3 phosphorylation in kidneys (Col4a3−/− mice [6]; 20 mg/kg 2x/week for 2.5 weeks from 6 weeks of age): largely reduced; also recorded: largely diminished
- TGFβ upregulation in the kidneys (Col4a3−/− mice [6]; Western blot): significantly reduced the degree of TGFβ upregulation
- Caspase 3 activation (Col4a3−/− mice [6]; kidney Western blot (cleaved Caspase 3)): reduced
- alpha-smooth muscle actin (αSMA) and fibronectin protein (Col4a3−/− mice [6]; kidney, reduction seen on transcripts): confirmed at the protein level
- podocyte markers WT1 and Podocin by immunoblotting (Col4a3−/− mice [6]; kidney): restored towards normal; also recorded: Preservation of podocytes
- median lifespan (Col4a3−/− mice [7]; 20 mg/kg 2x/week from 6 weeks of age until death, IgG control 62.5 days, P=0.0015): 88.5 days
- extension of median life span (Col4a3−/− mice [7]; from 62.5 to 88.5 days, vs IgG): 41.6%
- kidney mass (kidney weight) (Col4a3−/− mice [8]; 20 mg/kg 2x/week for 2.5 weeks from 6 weeks of age, vs IgG): preserved kidney mass
- total body weight loss as a percentage of starting body weight (Col4a3−/− mice [8]; 20 mg/kg i.p. 2x/week for 2.5 weeks from 6 weeks of age, end of study, IgG control 30%, P=0.0003): 17%
- increase in survival relative to mice treated with isotype-matched control antibody (129-Col4a3^tm1Dec/J mice): up to 40%
- serum blood urea nitrogen (BUN) (Col4a3−/− mice [9]): improved renal function; also recorded: markedly lowered
- serum creatinine (Cr) (Col4a3−/− mice [9]): improved renal function; also recorded: markedly lowered
- urinary albumin:creatinine ratio (ACR) (Col4a3−/− mice [9]): reduced albuminuria; also recorded: markedly lowered
- number of WT1-positive cells (podocytes) (Col4a3−/− mice [10]): restored towards normal; also recorded: restoration of podocytes
